The chains are these.
B1: Zinc finger homeobox protein 4, residues 2086 to 2141; numbered along this chain, Q86UP3 (parent)
chain: RPRTRITDDQLKILRAYFDINNSPSEEQIQEMAEKSGLSQKVIKHWFRNTLFKERQ

± gives the uncertainty stated by the source.

The values that follow come from the Human Domainome abundance scans (Beltran et al. 2025).

In the series the parent is B1. The series is described as follows: abundance fitness (aPCA) (normalised: wild type 0, dead -1); higher = more abundant; growth selection in yeast, the domain comes from the species named. The following applies: Homo sapiens.
For RPRTRITDDQLKILRAYFDINNSPSEEQIQEMCEKSGLSQKVIKHWFRNTLFKERQ [A33C], the abundance fitness came to 0.181 ± 0.12. In the case of RPRTRITDDQLKILRAYFDINNSPSEEQIQEMHEKSGLSQKVIKHWFRNTLFKERQ [A33H], the abundance fitness was determined as 0.191 ± 0.18. The value for RPRTRITDDQLKILRAYFDINNSPSEEQIQEMPEKSGLSQKVIKHWFRNTLFKERQ [A33P] was -0.84 ± 0.19. The value for RPRTRITDDQLKILRAYFDINNSPSEEQIQEMWEKSGLSQKVIKHWFRNTLFKERQ [A33W] was -0.582 ± 0.42; that for RPRTRITDDQLKILRAYFDINNSPSEEQIQEMVEKSGLSQKVIKHWFRNTLFKERQ [A33V] was -0.169 ± 0.14; that for RPRTRITDDQLKILRAYFDINNSPSEEQIQEMFEKSGLSQKVIKHWFRNTLFKERQ [A33F] was -0.036 ± 0.11. Next, RPRTRITDDQLKILRAYFDINNSPSEEQIQEMSEKSGLSQKVIKHWFRNTLFKERQ [A33S]: -0.025 ± 0.11. For RPRTRITDDQLKILRAYFDINNSPSEEQIQEMQEKSGLSQKVIKHWFRNTLFKERQ [A33Q], the abundance fitness amounted to 0.127 ± 0.27. The value for RPRTRITDDQLKILRAYFDINNSPSEEQIQEMDEKSGLSQKVIKHWFRNTLFKERQ [A33D] was -0.337 ± 0.14. Consider RPRTRITDDQLKILRAYFDINNSPSEEQIQEMIEKSGLSQKVIKHWFRNTLFKERQ [A33I], for which the abundance fitness is 0.038 ± 0.17. RPRTRITDDQLKILRAYFDINNSPSEEQIQEMGEKSGLSQKVIKHWFRNTLFKERQ [A33G]: the abundance fitness is 0.056 ± 0.16.

Turning to RPRTRITDDQLKILRAYFDINNSPSEEQIQEMREKSGLSQKVIKHWFRNTLFKERQ [A33R], the abundance fitness was 0.05 ± 0.13.

Turning to RPRTRITDDQLKILRAYFDINNSPSEEQIQEMKEKSGLSQKVIKHWFRNTLFKERQ [A33K], the abundance fitness is -0.126 ± 0.25. Next, RPRTRITDDQLKILRAYFDINNSPSEEQIQEMAECSGLSQKVIKHWFRNTLFKERQ [K35C]: -0.459 ± 0.093; RPRTRITDDQLKILRAYFDINNSPSEEQIQEMAEMSGLSQKVIKHWFRNTLFKERQ [K35M]: -0.304 ± 0.092; RPRTRITDDQLKILRAYFDINNSPSEEQIQEMAEISGLSQKVIKHWFRNTLFKERQ [K35I]: -0.518 ± 0.13. Next, RPRTRITDDQLKILRAYFDINNSPSEEQIQEMAELSGLSQKVIKHWFRNTLFKERQ [K35L]: -0.261 ± 0.072; RPRTRITDDQLKILRAYFDINNSPSEEQIQEMAEESGLSQKVIKHWFRNTLFKERQ [K35E]: -0.215 ± 0.1; RPRTRITDDQLKILRAYFDINNSPSEEQIQEMAEASGLSQKVIKHWFRNTLFKERQ [K35A]: -0.247 ± 0.091. As to RPRTRITDDQLKILRAYFDINNSPSEEQIQEMAEPSGLSQKVIKHWFRNTLFKERQ [K35P], the abundance fitness is -1.09 ± 0.16. The value for RPRTRITDDQLKILRAYFDINNSPSEEQIQEMAEQSGLSQKVIKHWFRNTLFKERQ [K35Q] was -0.18 ± 0.098; that for RPRTRITDDQLKILRAYFDINNSPSEEQIQEMAEVSGLSQKVIKHWFRNTLFKERQ [K35V] was -0.418 ± 0.078. The value for RPRTRITDDQLKILRAYFDINNSPSEEQIQEMAEDSGLSQKVIKHWFRNTLFKERQ [K35D] was -0.375 ± 0.12; that for RPRTRITDDQLKILRAYFDINNSPSEEQIQEMAEGSGLSQKVIKHWFRNTLFKERQ [K35G] was -0.242 ± 0.07; that for RPRTRITDDQLKILRAYFDINNSPSEEQIQEMAENSGLSQKVIKHWFRNTLFKERQ [K35N] was -0.265 ± 0.11.

Take RPRTRITDDQLKILRAYFDINNSPSEEQIQEMAEYSGLSQKVIKHWFRNTLFKERQ [K35Y]: the abundance fitness was -0.537 ± 0.15.

As for RPRTRITDDQLKILRAYFDINNSPSEEQIQEMAEHSGLSQKVIKHWFRNTLFKERQ [K35H], the abundance fitness was -0.349 ± 0.14.

With RPRTRITDDQLKILRAYFDINNSPSEEQIQEMAEWSGLSQKVIKHWFRNTLFKERQ [K35W], the abundance fitness is -0.615 ± 0.089. In the case of RPRTRITDDQLKILRAYFDINNSPSEEQIQEMAEFSGLSQKVIKHWFRNTLFKERQ [K35F], the abundance fitness is -0.415 ± 0.11. Next, RPRTRITDDQLKILRAYFDINNSPSEEQIQEMAESSGLSQKVIKHWFRNTLFKERQ [K35S]: -0.192 ± 0.077; RPRTRITDDQLKILRAYFDINNSPSEEQIQEMAGKSGLSQKVIKHWFRNTLFKERQ [E34G]: 0.033 ± 0.068. With RPRTRITDDQLKILRAYFDINNSPSEEQIQEMAFKSGLSQKVIKHWFRNTLFKERQ [E34F], the abundance fitness is -0.392 ± 0.12.

RPRTRITDDQLKILRAYFDINNSPSEEQIQEMALKSGLSQKVIKHWFRNTLFKERQ [E34L]: the abundance fitness is -0.054 ± 0.085. For the variant RPRTRITDDQLKILRAYFDINNSPSEEQIQEMAHKSGLSQKVIKHWFRNTLFKERQ [E34H], the abundance fitness is -0.314 ± 0.16. RPRTRITDDQLKILRAYFDINNSPSEEQIQEMAPKSGLSQKVIKHWFRNTLFKERQ [E34P]: the abundance fitness was -0.536 ± 0.14. In the case of RPRTRITDDQLKILRAYFDINNSPSEEQIQEMANKSGLSQKVIKHWFRNTLFKERQ [E34N], the abundance fitness is -0.136 ± 0.14.

With RPRTRITDDQLKILRAYFDINNSPSEEQIQEMASKSGLSQKVIKHWFRNTLFKERQ [E34S], the abundance fitness is -0.162 ± 0.083. Next, RPRTRITDDQLKILRAYFDINNSPSEEQIQEMAIKSGLSQKVIKHWFRNTLFKERQ [E34I]: -0.211 ± 0.19; RPRTRITDDQLKILRAYFDINNSPSEEQIQEMAYKSGLSQKVIKHWFRNTLFKERQ [E34Y]: -0.502 ± 0.2; RPRTRITDDQLKILRAYFDINNSPSEEQIQEMADKSGLSQKVIKHWFRNTLFKERQ [E34D]: -0.014 ± 0.1. RPRTRITDDQLKILRAYFDINNSPSEEQIQEMAMKSGLSQKVIKHWFRNTLFKERQ [E34M]: the abundance fitness was -0.221 ± 0.13.

On to RPRTRITDDQLKILRAYFDINNSPSEEQIQEMATKSGLSQKVIKHWFRNTLFKERQ [E34T], for which the abundance fitness is 0.023 ± 0.11. The value for RPRTRITDDQLKILRAYFDINNSPSEEQIQEMAVKSGLSQKVIKHWFRNTLFKERQ [E34V] was -0.037 ± 0.073.

Turning to RPRTRITDDQLKILRAYFDINNSPSEEQIQEMACKSGLSQKVIKHWFRNTLFKERQ [E34C], the abundance fitness is -0.429 ± 0.13. Consider RPRTRITDDQLKILRAYFDINNSPSEEQIQEMAWKSGLSQKVIKHWFRNTLFKERQ [E34W], for which the abundance fitness was -0.276 ± 0.098.

Regarding RPRTRITDDQLKILRAYFDINNSPSEEQIQEMAKKSGLSQKVIKHWFRNTLFKERQ [E34K], the abundance fitness is -0.147 ± 0.14. As for RPRTRITDDQLKILRAYFDINNSPSEEQIQEMAAKSGLSQKVIKHWFRNTLFKERQ [E34A], the abundance fitness was -0.011 ± 0.084.
